Experimental findings from US20180215829A1 (CRESCENDO BIOLOGICS, published 2018) are described below.

Usually Kd stands for the constant that tells how readily two partners part at equilibrium. What is called IC50 is the midpoint of a concentration-inhibition curve. One may read the koff as a measure of how fast the partners let go of each other. By kon is commonly meant the second-order rate constant of association.

The target in test [1] is T1, human IL-17RA on HT1080 cells (human, UniProt Q96F46 33-866).
T1 sequence: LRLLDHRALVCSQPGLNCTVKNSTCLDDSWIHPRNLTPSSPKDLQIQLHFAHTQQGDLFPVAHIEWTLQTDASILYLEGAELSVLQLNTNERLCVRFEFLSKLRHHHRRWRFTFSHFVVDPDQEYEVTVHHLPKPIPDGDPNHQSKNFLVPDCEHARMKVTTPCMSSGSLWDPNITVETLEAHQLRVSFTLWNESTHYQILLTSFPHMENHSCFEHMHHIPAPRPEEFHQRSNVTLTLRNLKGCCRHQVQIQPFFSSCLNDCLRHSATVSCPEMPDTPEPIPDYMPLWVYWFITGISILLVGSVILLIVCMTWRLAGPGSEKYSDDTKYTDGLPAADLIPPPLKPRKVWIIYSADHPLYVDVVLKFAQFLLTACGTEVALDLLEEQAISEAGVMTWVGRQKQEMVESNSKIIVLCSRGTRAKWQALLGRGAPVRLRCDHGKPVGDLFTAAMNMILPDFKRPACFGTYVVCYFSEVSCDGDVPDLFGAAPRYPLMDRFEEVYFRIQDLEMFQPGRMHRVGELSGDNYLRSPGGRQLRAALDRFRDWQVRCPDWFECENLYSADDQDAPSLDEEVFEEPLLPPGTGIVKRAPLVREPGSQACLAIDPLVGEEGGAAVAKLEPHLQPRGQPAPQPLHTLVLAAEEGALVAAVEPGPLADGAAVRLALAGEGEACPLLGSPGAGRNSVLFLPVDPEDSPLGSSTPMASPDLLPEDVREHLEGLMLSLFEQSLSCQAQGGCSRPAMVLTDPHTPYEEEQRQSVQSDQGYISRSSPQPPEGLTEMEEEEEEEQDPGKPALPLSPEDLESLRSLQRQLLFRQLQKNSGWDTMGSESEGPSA
Briefly: cell-based or functional assay.

Test [2] has as its target T2, recombinant human IL-17RA Fc fusion protein (R&D Systems 177-IR-100) (human, UniProt Q96F46 33-320).
T2 construct: Bought protein; not shown: Fc domain of human IgG1
T2 sequence: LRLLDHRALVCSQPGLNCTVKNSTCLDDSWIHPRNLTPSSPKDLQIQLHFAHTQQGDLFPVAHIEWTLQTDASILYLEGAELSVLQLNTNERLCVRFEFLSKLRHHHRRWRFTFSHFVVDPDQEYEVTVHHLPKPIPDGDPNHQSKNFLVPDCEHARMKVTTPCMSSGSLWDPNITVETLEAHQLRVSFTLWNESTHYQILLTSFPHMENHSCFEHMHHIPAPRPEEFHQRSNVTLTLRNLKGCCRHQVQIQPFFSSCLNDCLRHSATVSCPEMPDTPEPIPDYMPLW
In words: BIAcore T200 single-cycle kinetics, IL-17RA-Fc captured on protein G chip, VH as analyte. The method, then: (§1) Binding kinetics of anti-IL-17RA VH antibodies were measured on a BIAcore® T200 instrument. For IL-17RA, first a protein G chip was prepared by diluting protein G to 20 ug/ml in acetate buffer, pH 4 (BIAcore®, cat# BR-100-49) and then coupled 1200 RU to a CM5 Series S chip using amine coupling chemistry. This surface was then used to capture IL-17RA Fc fusion protein from solution: IL-17RA at 10 ug/ml in HBS injected for 10 seconds at 30 ul/min flow rate would capture approximately 100-150 RU of IL-17RA onto the protein G surface.
(§2) Binding kinetics of anti-IL-17RA VH antibodies were determined by single-cycle kinetics. VH antibodies were prepared in dilution series (typically 1:3 dilution series starting with 100 nM VH at the highest concentration), and then injected over the antigen coated surfaces and also a blank surface, starting with the lowest concentration of VH and then working progressively up to the highest concentration. VH binding kinetics were then determined from the (blank subtracted) sensorgram traces using 1:1 binding models and BIAevaluation software.
For orientation: In SPR one partner is held on a chip, and binding of the other changes the refractive index at the surface.

Test [3] deals with T2, recombinant human IL-17RA Fc fusion …. Briefly: receptor/ligand biochemical inhibition ELISA: VH competes with 1 nM IL-17A for coated IL-17RA-Fc. As for the experimental part: (§3) VH, both purified and crude periplasmic extracts, were also tested for their ability to inhibit the interaction of IL-17A with recombinant IL-17RA-Fc. […] Following washing of excess coating antigen, as described above, the wells of the plate were incubated with 3% Marvel/PBS to block non-specific protein interactions. VH preparations, crude periplasmic extracts or purified VH, or suitable controls, were prepared with 1 nM recombinant IL-17A (Peprotech, cat# AF-200-17) in 3% skimmed milk powder/PBS solution in polypropylene plates or tubes. The mixture was then transferred to the assay plate and incubated for 1 hour at room temperature. Excess protein was removed by washing and bound IL-17A was detected by incubation with biotinylated anti-IL-17A Mab (R & D Systems, cat BAF317) followed by the addition of neutravidin-HRP (Pierce, cat#31030) and TMB substrate (Sigma, cat# T0440). The TMB reaction was stopped by addition of 0.5M H₂SO₄ and absorbances were measured at 450 nm in a plate reader.

In a further test the target is T3, IL-17RB (UniProt Q9NRM6 18-289, limits assumed).
T3 sequence (looked up): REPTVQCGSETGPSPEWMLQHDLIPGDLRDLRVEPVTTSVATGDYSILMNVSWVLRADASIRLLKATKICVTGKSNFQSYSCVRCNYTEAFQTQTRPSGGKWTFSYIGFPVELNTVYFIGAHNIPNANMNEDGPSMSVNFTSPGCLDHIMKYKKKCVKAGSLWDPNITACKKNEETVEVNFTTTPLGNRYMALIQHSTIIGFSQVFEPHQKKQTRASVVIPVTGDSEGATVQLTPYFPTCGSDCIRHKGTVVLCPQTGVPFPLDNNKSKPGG
Briefly: specificity ELISA, antigen coated, anti-His-HRP detection. The method, then: (§4) The binding ELISA for crude or purified VH was similar to the serum ELISA and phage ELISA, previously described, mostly differing in the final detection steps. Briefly, antigen was immobilised on maxisorb plates (Nunc 443404) by adding 50 ul volumes at 0.1-1 ug/ml in PBS and incubating at 4° C. overnight. Following coating, the antigen solution was aspirated and the plates were washed using PBS (prepared from PBS tablets, Oxoid cat no. BR0014G) supplemented with 0.05% Tween® 20 (sigma P1379), followed by washes with PBS without added Tween®. To block non-specific protein interactions, a solution of 3% skimmed milk powder (Marvel) in PBS was added to the wells and the plate was incubated for at least one hour at room temperature. Dilutions of periplasmic extract or purified VH in 3% Marvel/PBS were prepared in polypropylene tubes or plates and incubated for at least one hour at room temperature prior to transfer to the blocked ELISA plate where a further incubation of at least one hour took place. Unbound protein was then washed away using repetitive washes with PBS/Tween® followed by PBS. A solution of HRP-conjugated anti-His Ab (Miltenyi Biotec, 130-092-785), prepared at 1:1000 dilution in PBS/3% Marvel was then added to each well and a further incubation at room temperature for at least one hour took place. Unbound detection antibody was removed by repeated washing using PBS/Tween® and PBS. The ELISA was then developed using TMB substrate (Sigma cat. no. T0440) and the reaction was stopped after 10 minutes by the addition of 0.5M H₂SO₄ solution (Sigma cat. no. 320501). Absorbances were determined by reading at 450 nm.
(ELISA stands for enzyme-linked immunosorbent assay.)

In another test the target is T4, IL-17RD (UniProt Q8NFM7 17-299, limits assumed).
T4 sequence (looked up): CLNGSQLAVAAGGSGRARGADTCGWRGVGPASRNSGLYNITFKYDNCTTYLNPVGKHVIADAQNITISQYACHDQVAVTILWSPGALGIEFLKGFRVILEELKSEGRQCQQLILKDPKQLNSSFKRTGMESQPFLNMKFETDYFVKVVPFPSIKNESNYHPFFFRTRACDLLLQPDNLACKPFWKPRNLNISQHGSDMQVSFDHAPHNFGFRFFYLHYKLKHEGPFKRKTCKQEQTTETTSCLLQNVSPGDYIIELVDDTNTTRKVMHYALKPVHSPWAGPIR
The description is as above. The method, then:
as §4

Test [4] deals with T1, human IL-17RA on HT1080 cells. Briefly: cell-based or functional assay. This is another data set of the same source.
Test [5] concerns the target T2, recombinant human IL-17RA Fc fusion …. Briefly: BIAcore T200 single-cycle kinetics, IL-17RA-Fc captured on protein G chip, VH as analyte. As for the experimental part:
as §1, §2
The source holds these as a separate data set.

Test [6] concerns the target T1, human IL-17RA on HT1080 cells. Briefly: cell-based or functional assay. This is another data set of the same source.
Test [7] deals with T2, recombinant human IL-17RA Fc fusion …. In words: receptor/ligand biochemical inhibition ELISA: VH competes with 1 nM IL-17A for coated IL-17RA-Fc. The method, then: as §3
The source holds these as a separate data set.

Like-named read-outs stand apart in the source and are kept apart here.

B1: VH clone 7.1 (VHH)
VHH: EVQLVESGGGLVQPGGSLRLSCAASGFTFSNYWMSWVRQARGKGLEWVANIRPDGSERYYVDSVKGRFTISRDNAKNSLYLQMSSLRAEDTAVYYCARSRDWGSRAFDIWGQGTMVTVSS
notes: Human VH single domain antibody, no light chain; Parent clone of family 7
B1: in test [1], the “Cell assay IC50” value was determined as 1840 nM. Besides, the Kd in [2] is 370 nM.

B2: VH clone 5.1 (VHH)
VHH: EVQLVESGGGLVKPGGSLRLSCEASGFTFSDFDMSWIRQAPGKGLEWVAYISSSDSTIYYRDSVKGRFTISRDNAKNSLYLQMNSLRAEDTAVYYCSRNGARYNWNYGDFQHWGQGTLVTVSS
notes: Human VH single domain antibody, no light chain; Parent clone of family 5
For B2, the “Cell assay IC50” value in test [1] was found to be 73 nM. In addition, the IC50 in test [3] came to 80 nM. The Kd in test [2] was 41 nM.

B3: VH clone 3.1 (VHH)
VHH: EVQLVESGGGLVQPGGSLRLSCAASGFPFSTYWMRWLRQAPGKGLEWVANINQDGSEKYYVDSVKGRFTISRDNAKSSLFLQMNSLRAEDTAVYYCARGWESGWFEPWGQGTLVTVSS
notes: Human VH single domain antibody, no light chain; Parent clone of family 3; also called VH 3.1
Turning to B3, in test [3], the IC50 is 11 nM. Further, the Kd in test [2] stood at 9.6 nM.

B4: VH clone 6.1 (VHH)
VHH: EVQLVESGGGLVKPGGSLRLSCAASGFTFSDDYMSWLRQAPGKGLEWVSYISSSGSTIYYADSVKGRFTISRDNAKNSLYLQMNSLRAEDSAVYYCARKDITNIAVGSLGYWGQGTLVTVSS
notes: Human VH single domain antibody, no light chain; Parent clone of family 6
For B4, the “Cell assay IC50” value in [1] amounted to 233 nM. For the same molecule, in test [2], the Kd amounted to 31 nM.

B5: VH clone 1.2 (VHH)
VHH: EVQLVESGGGLVQPGRSLRLSCAASGFTFDDYAMHWVRQAPGKGLEWVSGISWNSGRMDYADSVKGRFTISRDNAKNSLYLQMNSLRAEDTALYYCAKEKGLGYCRGGSCSYFDYRGQGTLVTVSS
notes: Human VH single domain antibody, no light chain; Family 1; also called VH 1.2
For B5, the binding result in the test with IL-17RB and with IL-17RD was “no binding” each time. For the same molecule, the “IC50 (nM), cell-based assay” value in test [4] is 141 nM.

B6: VH clone 1.1 (VHH)
VHH: QVQLVESGGGLVQPGRSLRLSCAASGFTFDDYAMHWVRQAPGKGLEWVSGISWNSGRMDYADSVKGRFTISRDNAKKSLYLQMNSLRAEDTAMYYCAKEKGLGFCRGGSCSYFDYRGQGTLVTVSS
notes: Human VH single domain antibody, no light chain; Parent clone of family 1; also called VH 1.1
As for B6, the “Cell assay IC50” value in test [1] was 4.7 nM. The binding result with IL-17RB and in the test with IL-17RD was “no binding” each time. Moreover, the “IC50 (nM), cell-based assay” value in test [4] was found to be 39 nM. The Kd in test [2] was 0.063 nM.

B7: VH 62A4 (VHH)
VHH: QVQLVESGGGLVQPGRSLTLSCTASGFTFHDYAMHWVRQPPGGGLEWVAGVSWNGNNVGYADSVKGRFTISRDNAKKSLYLQMNSLRSEDTALYYCAKGGMGSGSHPDSFSTWGQGTMVTVSS
notes: VH single domain
With B7, the binding result in the test with IL-17RB and in the test with IL-17RD was “no binding” in each case.

B8: VH clone 2.3 (VHH)
VHH: QVQLVQSGAEVKKPGASVKVSCKASGYPFTSYDINWVRQATGRSLEWMGWMNPTSGDTVYAQKFQDRVTMTRNTSISTAYMELSSLRSEDTAVYFCARGRRDNWKNNYWGQGTLVTVSS
notes: Human VH single domain antibody, no light chain; Optimised variant of clone 2.1
As for B8, in test [5], the dissociation constant (Kd) is 2.5 nM, the koff amounted to 0.00137 s⁻¹ and the kon came out at 555000 M⁻¹ s⁻¹. Also, in test [6], the “Cell assay IC50” value was 118 nM. Besides, the IC50 in test [7] stood at 1.3 nM.

B9: VH clone 4.1 (VHH)
VHH: QVQLVQSGAEVKKPGASVKVSCKASGYPFTNYDISWIRQATGQSLEWMGWMNPDSGNTGYAQKFQGRVTMTRNTSISTAYMELSGLRSEDTAVYFCARGGYNAWRTDYWGQGTLVTVSS
notes: Human VH single domain antibody, no light chain; Parent clone of family 4
For the molecule B9, in test [1], the “Cell assay IC50” value was found to be 282 nM. For the same molecule, the Kd in test [2] stood at 4.5 nM.
